From patent US20030032788
Where a chain is given by its changes, count along the chain named.

T1: endogenous rat mitochondrial aldehyde dehydrogenase (ALDH2) of H4-II-E-C3 hepatoma cells, P11884
T1 chain: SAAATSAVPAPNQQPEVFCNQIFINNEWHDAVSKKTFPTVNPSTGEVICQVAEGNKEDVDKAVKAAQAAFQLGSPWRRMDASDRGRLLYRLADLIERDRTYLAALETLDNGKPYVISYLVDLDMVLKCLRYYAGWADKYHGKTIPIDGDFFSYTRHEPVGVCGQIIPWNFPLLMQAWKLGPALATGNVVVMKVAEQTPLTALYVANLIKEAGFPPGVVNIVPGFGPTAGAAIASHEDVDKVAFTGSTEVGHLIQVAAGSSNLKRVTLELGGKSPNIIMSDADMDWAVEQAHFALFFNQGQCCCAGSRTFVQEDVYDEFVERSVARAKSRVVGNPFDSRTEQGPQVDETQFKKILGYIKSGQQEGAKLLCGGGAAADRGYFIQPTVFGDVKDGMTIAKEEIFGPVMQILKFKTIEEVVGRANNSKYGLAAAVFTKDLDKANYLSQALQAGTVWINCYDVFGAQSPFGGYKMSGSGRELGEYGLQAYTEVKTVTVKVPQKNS

B1: human ALDH2-2 (mutant) monomer, expressed from the retroviral vector pLHCK3'UT in rat hepatoma H4-II-E-C3 cells (protein)
chain: SAAATQAVPAPNQQPEVFCNQIFINNEWHDAVSRKTFPTVNPSTGEVICQVAEGDKEDVDKAVKAARAAFQLGSPWRRMDASHRGRLLNRLADLIERDRTYLAALETLDNGKPYVISYLVDLDMVLKCLRYYAGWADKYHGKTIPIDGDFFSYTRHEPVGVCGQIIPWNFPLLMQAWKLGPALATGNVVVMKVAEQTPLTALYVANLIKEAGFPPGVVNIVPGFGPTAGAAIASHEDVDKVAFTGSTEIGRVIQVAAGSSNLKRVTLELGGKSPNIIMSDADMDWAVEQAHFALFFNQGQCCCAGSRTFVQEDIYDEFVERSVARAKSRVVGNPFDSKTEQGPQVDETQFKKILGYINTGKQEGAKLLCGGGIAADRGYFIQPTVFGDVQDGMTIAKEEIFGPVMQILKFKTIEEVVGRANNSTYGLAAAVFTKDLDKANYLSQALQAGTVWVNCYDVFGAQSPFGGYKMSGSGRELGEYGLQAYTKVKTVTVKVPQKNS
B2: human ALDH2-1 (wild-type) monomer, expressed from the retroviral vector pLNCE in rat hepatoma H4-II-E-C3 cells (protein)
chain: B1 chain with K487E

Target: T1, endogenous rat mitochondrial aldehyde …

Protein	ALDH2 specific activity of ALDH2-2 transduced H4 clones (lower end of range) (nanomoles/minute/milligram protein)	ALDH2 specific activity of ALDH2-2 transduced H4 clones (mean ± SEM, N=22) (nanomoles/minute/milligram protein)	ALDH2 specific activity of ALDH2-2 transduced H4 clones (upper end of range) (nanomoles/minute/milligram protein)	reduction in hepatocyte ALDH2 activity	ALDH2 specific activity of ALDH2-1 transduced H4 clones (lower end of range) (nanomoles/minute/milligram protein)	ALDH2 specific activity of ALDH2-1 transduced H4 clones (mean ± SEM, N=15) (nanomoles/minute/milligram protein)	ALDH2 specific activity of ALDH2-1 transduced H4 clones (upper end of range) (nanomoles/minute/milligram protein)	increase of ALDH activity relative to the empty vector control group
B1	15	40.4	54	leads to a >60% reduction in hepatocyte ALDH2 activity	–	–	–	–
B2	–	–	–	–	42	54.7	78	ALDH activity was increased by as much as 52% in some ALDH2-1 transduced clones
